Test results taken from patent publication US12042530B2, “Target peptides for immunotherapy and diagnostics” (University of Virginia Patent Foundation, priority 2012, dated 2024).
Non-standard residues stand in square brackets, D forms with d. No end group written: not given here. pT = C[C@@H](OP(=O)(O)O)[C@H](N)C(=O)O; pS = N[C@@H](COP(=O)(O)O)C(=O)O

Columns and labels:
[1] = molecular target: T1, HLA-B*0702 (HLA-B7) peptide complexes (Homo sapiens, UniProt P01889); assay: HLA-B*0702 phosphopeptides associated with leukemia samples (isolation of HLA-associated peptides); settings: for Copies/cell class, ALL1: acute lymphoblastic leukemia sample ALL1; for Copies/cell class, HCL1: hairy cell leukemia sample HCL1; for Copies/cell class, B Cell: healthy B cells; for Copies/cell class, T Cell: healthy T cells
T1 construct: endogenous in cells; host or cells: JY B-lymphoblastoid line; primary ALL, CLL, HCL, AML samples; bone marrow; healthy B and T cells
Source text: To identify naturally processed tumor-associated phosphopeptides, HLA-A*0201 (HLA-A2) and HLA-B*0702 (HLA-B7) peptide complexes from four (4) chronic lymphocytic leukemia (CLL) tumor samples, a mantle cell lymphoma sample (MCL), one acute lymphoblastic leukemia (ALL), and an acute myeloid leukemia (AML) sample, in addition to healthy splenic T and B-cells and the cultured lymphoblastoid cell line JY were isolated. These efforts yielded 10 HLA-A2-restricted and 86 HLA-B7-restricted phosphopeptide antigens (see Tables 6 and 7).
All cell lines were grown at 37° C. with 5% CO2 in growth medium consisting of RPMI 1640 supplemented with 10% FCS and two mM L-glutamine. Blood or leukapheresis samples were taken from patients with high-burden leukemia in heparin. Tumor cells were recovered by layering the blood over density gradient (Ficoll) and collecting the tumor layer following centrifugation. The tumor was washed in tris-buffered saline (TBS). The purity of the tumor was assessed using flow cytometry and was >98% pure in all cases. For healthy T and B-cell populations, a normal spleen sample processed and tonsil sample was collected and lymphocytes released through mechanical disruption. Mononuclear cells were isolated using a density gradient and 10^9 T cells isolated using anti-CD19 or anti-CD3 microbeads (Miltenyi Biotec Inc., Auburn, California, United States of America) with purity >98% were obtained. Bone marrow sample was obtained from an elective orthopedic procedure and red cell-depleted using hypotonic lysis. This sample was not processed further.
Class I MHC molecules were immunoaffinity purified from the JY cell line or from primary tumor samples, and their associated peptides were extracted as previously described in Zarling et al., 2006. Approximately 1.2-14×10^9 cells were lysed in a solution containing 20 mM Tris-HCl (pH 8.0), 150 mM NaCl, 1% CHAPS, one mM PMSF, five μg/mL aprotinin, 10 μg/mL leupeptin, 10 μg/mL pepstatin A, 1 μg/ml calyculin A, and phosphatase inhibitor (cocktails I and II; Sigma-Aldrich). The mixture was subjected to centrifugation and the resulting supernatant was passed over protein A sepharose pre-loaded with the HLA-A2-specific antibody BB7.2 or HLA-B7-specific antibody MEL Peptides were eluted from the purified class I MHC molecules with 10% acetic acid.

HLA-B*0702 = molecular target: T2, HLA-B*0702 (Homo sapiens, UniProt P01889); assay: Phosphopeptides presented in association with class I molecules (HLA-B*0702) on cancer cells: melanoma and/or leukemia; set-up: key: Melanoma (M); Leukemia (L); L/M: Melanoma (M) and/or Leukemia (L); settings: cancer type on which the HLA-B*0702 phosphopeptide is presented
T2 construct: endogenous in cells; host or cells: melanoma and/or leukemia cells

338 (RPR[pS]PTGP; listed as Homo sapiens) [compound 338]
Copies/cell class, AML1 [1]: 4 (4 indicates >25 copies per cell)
L/M (HLA-B*0702): L

333 (RPR[pS]PAARL; listed as Homo sapiens) [compound 333]
Copies/cell class, AML1 [1]: 1 (1 indicates <1 copy/cell)
L/M (HLA-B*0702): L

289 (KPQTRGK[pT]F; listed as Homo sapiens) [compound 289]
Copies/cell class, ALL1 [1]: 1 (1 indicates <1 copy/cell)
Copies/cell class, HCL1 [1]: 1 (1 indicates <1 copy/cell)
L/M (HLA-B*0702): L

360 (RSL[pS]PGGAA; listed as Homo sapiens) [compound 360]
Copies/cell class, ALL1 [1]: 1 (1 indicates <1 copy/cell)
L/M (HLA-B*0702): L

347 (RPV[pS]PFQEL; listed as Homo sapiens) [compound 347]
Copies/cell class, AML1 [1]: 2 (2 indicates 1-5 copies/cell)
Copies/cell class, CLL2 [1]: 2 (2 indicates 1-5 copies/cell)
Copies/cell class, CLL4 [1]: 2 (2 indicates 1-5 copies/cell)
Copies/cell class, JY [1]: 4 (4 indicates >25 copies per cell)
Copies/cell class, ALL1 [1]: 3 (3 indicates 6-25 copies per cell)
Copies/cell class, HCL1 [1]: 3 (3 indicates 6-25 copies per cell)
Copies/cell class, B Cell [1]: 3 (3 indicates 6-25 copies per cell)
Copies/cell class, T Cell [1]: 3 (3 indicates 6-25 copies per cell)
L/M (HLA-B*0702): L

315 (RPI[pT]PPRNSA; listed as Homo sapiens) [compound 315]
Copies/cell class, ALL1 [1]: 1 (1 indicates <1 copy/cell)
L/M (HLA-B*0702): L

346 (RPT[pS]RLNRL; listed as Homo sapiens) [compound 346]
Copies/cell class, AML1 [1]: 2 (2 indicates 1-5 copies/cell)
Copies/cell class, CLL2 [1]: 2 (2 indicates 1-5 copies/cell)
Copies/cell class, CLL4 [1]: 2 (2 indicates 1-5 copies/cell)
Copies/cell class, JY [1]: 4 (4 indicates >25 copies per cell)
Copies/cell class, ALL1 [1]: 2 (2 indicates 1-5 copies/cell)
Copies/cell class, HCL1 [1]: 2 (2 indicates 1-5 copies/cell)
Copies/cell class, B Cell [1]: 2 (2 indicates 1-5 copies/cell)
L/M (HLA-B*0702): L

383 (SPSTSRSGG[pS]SRL; listed as Homo sapiens) [compound 383]
Copies/cell class, AML1 [1]: 1 (1 indicates <1 copy/cell)
L/M (HLA-B*0702): L

320 (RPPPPPD[pT]PP; listed as Homo sapiens) [compound 320]
Copies/cell class, ALL1 [1]: 1 (1 indicates <1 copy/cell)
L/M (HLA-B*0702): L

306 (RPAK[pS]MDSL; listed as Homo sapiens) [compound 306]
Copies/cell class, CLL2 [1]: 2 (2 indicates 1-5 copies/cell)
Copies/cell class, JY [1]: 4 (4 indicates >25 copies per cell)
Copies/cell class, ALL1 [1]: 2 (2 indicates 1-5 copies/cell)
Copies/cell class, HCL1 [1]: 1 (1 indicates <1 copy/cell)
Copies/cell class, B Cell [1]: 2 (2 indicates 1-5 copies/cell)
Copies/cell class, T Cell [1]: 3 (3 indicates 6-25 copies per cell)
L/M (HLA-B*0702): L

313 (RPF[pS]PREAL; listed as Homo sapiens) [compound 313]
Copies/cell class, CLL4 [1]: 4 (4 indicates >25 copies per cell)
Copies/cell class, HCL1 [1]: 4 (4 indicates >25 copies per cell)
Copies/cell class, B Cell [1]: 4 (4 indicates >25 copies per cell)
Copies/cell class, T Cell [1]: 4 (4 indicates >25 copies per cell)
L/M (HLA-B*0702): L

328 (RPRPV[pS]PSSL; listed as Homo sapiens) [compound 328]
Copies/cell class, AML1 [1]: 1 (1 indicates <1 copy/cell)
L/M (HLA-B*0702): L

348 (RPV[pS]PGKDI; listed as Homo sapiens) [compound 348]
Copies/cell class, ALL1 [1]: 1 (1 indicates <1 copy/cell)
L/M (HLA-B*0702): L

277 (GPRSASLL[pS]L; listed as Homo sapiens) [compound 277]
Copies/cell class, AML1 [1]: 4 (4 indicates >25 copies per cell)
L/M (HLA-B*0702): M

387 (TPR[pS]PPLGL; listed as Homo sapiens) [compound 387]
Copies/cell class, AML1 [1]: 3 (3 indicates 6-25 copies per cell)
Copies/cell class, CLL2 [1]: 3 (3 indicates 6-25 copies per cell)
Copies/cell class, CLL4 [1]: 2 (2 indicates 1-5 copies/cell)
Copies/cell class, JY [1]: 4 (4 indicates >25 copies per cell)
Copies/cell class, HCL1 [1]: 3 (3 indicates 6-25 copies per cell)
L/M (HLA-B*0702): L

285 (KPP[pS]PEHQSL; listed as Homo sapiens) [compound 285]
Copies/cell class, ALL1 [1]: 1 (1 indicates <1 copy/cell)
L/M (HLA-B*0702): L

310 (RPA[pT]GGPGVA; listed as Homo sapiens) [compound 310]
Copies/cell class, ALL1 [1]: 1 (1 indicates <1 copy/cell)
L/M (HLA-B*0702): L

270 (EPR[pS]PSHSM; listed as Homo sapiens) [compound 270]
Copies/cell class, AML1 [1]: 1 (1 indicates <1 copy/cell)
L/M (HLA-B*0702): L

386 (TPI[pS]PGRASGM; listed as Homo sapiens) [compound 386]
Copies/cell class, ALL1 [1]: 1 (1 indicates <1 copy/cell)
L/M (HLA-B*0702): L

367 (SPA[pS]PKISL; listed as Homo sapiens) [compound 367]
Copies/cell class, CLL2 [1]: 1 (1 indicates <1 copy/cell)
Copies/cell class, CLL4 [1]: 1 (1 indicates <1 copy/cell)
Copies/cell class, JY [1]: 4 (4 indicates >25 copies per cell)
Copies/cell class, ALL1 [1]: 1 (1 indicates <1 copy/cell)
Copies/cell class, HCL1 [1]: 1 (1 indicates <1 copy/cell)
L/M (HLA-B*0702): L

392 (YQR[pS]FDEVEGVF; listed as Homo sapiens) [compound 392]
Copies/cell class, AML1 [1]: 2 (2 indicates 1-5 copies/cell)
L/M (HLA-B*0702): L

269 (EPKRR[pS]ARL; listed as Homo sapiens) [compound 269]
Copies/cell class, AML1 [1]: 1 (1 indicates <1 copy/cell)
L/M (HLA-B*0702): L

297 (LPA[pS]PRARL; listed as Homo sapiens) [compound 297]
Copies/cell class, AML1 [1]: 1 (1 indicates <1 copy/cell)
L/M (HLA-B*0702): L

368 (SPEKAGRR[pS]SL; listed as Homo sapiens) [compound 368]
Copies/cell class, AML1 [1]: 1 (1 indicates <1 copy/cell)
L/M (HLA-B*0702): L

325 (RPRAN[pS]GGVDL; listed as Homo sapiens) [compound 325]
Copies/cell class, AML1 [1]: 2 (2 indicates 1-5 copies/cell)
L/M (HLA-B*0702): L

331 (RPR[pS]LEVTI; listed as Homo sapiens) [compound 331]
Copies/cell class, AML1 [1]: 1 (1 indicates <1 copy/cell)
L/M (HLA-B*0702): L
